Key:
[1] = target: T1, apolipoprotein A-IV (mouse), P06728; assay: ratio of MS intensity on L-form beads to that on D-form (C10-KR8d) beads
T1 chain: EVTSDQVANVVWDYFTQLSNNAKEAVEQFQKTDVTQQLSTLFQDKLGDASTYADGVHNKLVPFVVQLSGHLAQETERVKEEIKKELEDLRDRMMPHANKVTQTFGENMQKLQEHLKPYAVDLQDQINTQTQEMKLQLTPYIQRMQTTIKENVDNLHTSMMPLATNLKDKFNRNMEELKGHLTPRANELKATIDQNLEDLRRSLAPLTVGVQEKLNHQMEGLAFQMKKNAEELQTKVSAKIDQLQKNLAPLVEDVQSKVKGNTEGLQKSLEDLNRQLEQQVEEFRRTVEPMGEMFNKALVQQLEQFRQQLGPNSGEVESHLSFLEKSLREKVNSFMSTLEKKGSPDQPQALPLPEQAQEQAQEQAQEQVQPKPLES

[2] = target: serum albumin (mouse), P07724; assay: as above
serum albumin (mouse), P07724, sequence (P07724 25-608 limits assumed): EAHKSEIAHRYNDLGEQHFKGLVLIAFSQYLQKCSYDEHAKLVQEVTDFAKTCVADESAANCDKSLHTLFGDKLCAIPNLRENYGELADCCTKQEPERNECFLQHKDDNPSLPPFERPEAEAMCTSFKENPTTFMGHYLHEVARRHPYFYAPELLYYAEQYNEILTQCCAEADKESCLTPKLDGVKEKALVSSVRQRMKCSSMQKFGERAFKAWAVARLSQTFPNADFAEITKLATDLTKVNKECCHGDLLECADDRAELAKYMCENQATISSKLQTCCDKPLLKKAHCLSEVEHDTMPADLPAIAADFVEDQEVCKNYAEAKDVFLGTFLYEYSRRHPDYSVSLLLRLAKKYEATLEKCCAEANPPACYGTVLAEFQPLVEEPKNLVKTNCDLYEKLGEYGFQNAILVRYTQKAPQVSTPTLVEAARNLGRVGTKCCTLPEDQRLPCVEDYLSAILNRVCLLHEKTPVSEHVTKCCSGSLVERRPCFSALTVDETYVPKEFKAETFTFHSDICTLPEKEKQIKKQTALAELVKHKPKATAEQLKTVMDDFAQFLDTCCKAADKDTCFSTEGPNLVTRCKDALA

[3] = target: T2, apolipoprotein C-I (mouse), P34928; assay: as above
T2 chain: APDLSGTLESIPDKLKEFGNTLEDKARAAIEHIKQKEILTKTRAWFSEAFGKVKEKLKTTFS

[4] = target: T3, apolipoprotein A-I (mouse), Q00623; assay: as above
T3 chain: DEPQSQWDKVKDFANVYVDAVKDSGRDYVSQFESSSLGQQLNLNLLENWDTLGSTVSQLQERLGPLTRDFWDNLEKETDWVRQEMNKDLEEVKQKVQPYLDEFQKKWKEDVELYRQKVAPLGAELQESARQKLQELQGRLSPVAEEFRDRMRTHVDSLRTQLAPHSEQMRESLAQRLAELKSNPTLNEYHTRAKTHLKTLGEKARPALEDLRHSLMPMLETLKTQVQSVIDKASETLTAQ

[5] = target: T1, apolipoprotein A-IV (mouse), P06728; assay: peptide on Dynabeads, 5% mouse plasma, LC-MS/MS
[6] = target: serum albumin (mouse), P07724; assay: peptide on Dynabeads, 5% mouse plasma, LC-MS/MS
[7] = target: T2, apolipoprotein C-I (mouse), P34928; assay: peptide on Dynabeads, 5% mouse plasma, LC-MS/MS
[8] = target: T3, apolipoprotein A-I (mouse), Q00623; assay: peptide on Dynabeads, 5% mouse plasma, LC-MS/MS

L/D Ratio [1]: 2.89
L/D Ratio [2]: 2.28
L/D Ratio [3]: 2.08
L/D Ratio [4]: 3.54
intensity (mass spectrometry) [5]: 3.21e+08
intensity (mass spectrometry) [6]: 3.72e+10
intensity (mass spectrometry) [7]: 4.35e+08
intensity (mass spectrometry) [8]: 4.29e+09
Binder: CKRIWQRIK (modifications not checked)

Source: patent publication US20240294572A1, “Antimicrobial Peptides” (priority 2021, published 2024)
